Source: IntAct's records for PubMed 17928862

B1: Charged multivesicular body protein 1b (Homo sapiens), Q7LBR1 (parent)
chain: MSNMEKHLFNLKFAAKELSRSAKKCDKEEKAEKAKIKKAIQKGNMEVARIHAENAIRQKNQAVNFLRMSARVDAVAARVQTAVTMGKVTKSMAGVVKSMDATLKTMNLEKISALMDKFEHQFETLDVQTQQMEDTMSSTTTLTTPQNQVDMLLQEMADEAGLDLNMELPQGQTGSVGTSVASAEQDELSQRLARLRDQV
partner: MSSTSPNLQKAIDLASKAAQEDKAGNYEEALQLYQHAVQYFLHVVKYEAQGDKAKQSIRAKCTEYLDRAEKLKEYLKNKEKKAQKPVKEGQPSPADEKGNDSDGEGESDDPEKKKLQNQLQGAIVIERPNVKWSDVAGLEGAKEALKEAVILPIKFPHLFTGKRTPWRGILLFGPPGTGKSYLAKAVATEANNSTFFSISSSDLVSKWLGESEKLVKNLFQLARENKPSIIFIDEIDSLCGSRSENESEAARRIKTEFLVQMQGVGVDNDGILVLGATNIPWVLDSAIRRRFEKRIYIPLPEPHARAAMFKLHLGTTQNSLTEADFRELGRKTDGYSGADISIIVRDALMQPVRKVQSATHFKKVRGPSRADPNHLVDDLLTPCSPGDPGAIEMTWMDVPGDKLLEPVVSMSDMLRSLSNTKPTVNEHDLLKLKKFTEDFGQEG
B2: Vacuolar protein sorting-associated protein 4A (Homo sapiens), Q9UN37 (parent)
chain: MTTSTLQKAIDLVTKATEEDKAKNYEEALRLYQHAVEYFLHAIKYEAHSDKAKESIRAKCVQYLDRAEKLKDYLRSKEKHGKKPVKENQSEGKGSDSDSEGDNPEKKKLQEQLMGAVVMEKPNIRWNDVAGLEGAKEALKEAVILPIKFPHLFTGKRTPWRGILLFGPPGTGKSYLAKAVATEANNSTFFSVSSSDLMSKWLGESEKLVKNLFELARQHKPSIIFIDEVDSLCGSRNENESEAARRIKTEFLVQMQGVGNNNDGTLVLGATNIPWVLDSAIRRRFEKRIYIPLPEEAARAQMFRLHLGSTPHNLTDANIHELARKTEGYSGADISIIVRDSLMQPVRKVQSATHFKKVCGPSRTNPSMMIDDLLTPCSPGDPGAMEMTWMDVPGDKLLEPVVCMSDMLRSLATTRPTVNADDLLKVKKFSEDFGQES
partner: B1 chain

Variants of: B1
Conditions: with vps4b_human VPS4B

Row | Variant | effect of a mutation on the interaction
1 | L192A | decreasing interaction strength
2 | L188A | decreasing interaction strength

Variants of: B2
Conditions: with chm1b_human CHMP1B

Row | Variant | effect of a mutation on the interaction
3 | L64D | disrupting interaction strength
4 | L64A | decreasing interaction strength
